Data published in article PMC3136621 (Analytical chemistry, 2011).

Key:
[1] = target: yeast alcohol dehydrogenase (ADH) from Saccharomyces cerevisiae (Saccharomyces cerevisiae) (UniProt P00330); test: native MS
[2] = target: the molecule itself; test: native MS

## yeast alcohol dehydrogenase (ADH) from Saccharomyces cerevisiae (from UniProt P00330 1-348) (enzyme)
[1]
  stoichiometry N: 4

B1: Fenna-Matthews-Olson (FMO) antenna protein from the green sulfur bacterium Chlorobaculum tepidum (natural protein, UniProt Q46393 1-366, looked up)
chain: MALFGSNDVTTAHSDYEIVLEGGSSSWGKVKARAKVNAPPASPLLPADCDVKLNVKPLDPAKGFVRISAVFESIVDSTKNKLTIEADIANETKERRISVGEGMVSVGDFSHTFSFEGSVVNLFYYRSDAVRRNVPNPIYMQGRQFHDILMKVPLDNNDLIDTWEGTVKAIGSTGAFNDWIRDFWFIGPAFTALNEGGQRISRIEVNGLNTESGPKGPVGVSRWRFSHGGSGMVDSISRWAELFPSDKLNRPAQVEAGFRSDSQGIEVKVDGEFPGVSVDAGGGLRRILNHPLIPLVHHGMVGKFNNFNVDAQLKVVLPKGYKIRYAAPQYRSQNLEEYRWSGGAYARWVEHVCKGGVGQFEILYAQ
[2]
  stoichiometry N: 3
